From publication doi:10.1101/2025.10.18.683246 (bioRxiv, 2025)

What was measured:
[1] = molecular target: T1, N-terminal cleavage product of CLCA1 (NTP) (human, UniProt A8K7I4 22-694, N-glycans at Asn503 and Asn585); test: cryo-EM structure
T1 sequence (looked up): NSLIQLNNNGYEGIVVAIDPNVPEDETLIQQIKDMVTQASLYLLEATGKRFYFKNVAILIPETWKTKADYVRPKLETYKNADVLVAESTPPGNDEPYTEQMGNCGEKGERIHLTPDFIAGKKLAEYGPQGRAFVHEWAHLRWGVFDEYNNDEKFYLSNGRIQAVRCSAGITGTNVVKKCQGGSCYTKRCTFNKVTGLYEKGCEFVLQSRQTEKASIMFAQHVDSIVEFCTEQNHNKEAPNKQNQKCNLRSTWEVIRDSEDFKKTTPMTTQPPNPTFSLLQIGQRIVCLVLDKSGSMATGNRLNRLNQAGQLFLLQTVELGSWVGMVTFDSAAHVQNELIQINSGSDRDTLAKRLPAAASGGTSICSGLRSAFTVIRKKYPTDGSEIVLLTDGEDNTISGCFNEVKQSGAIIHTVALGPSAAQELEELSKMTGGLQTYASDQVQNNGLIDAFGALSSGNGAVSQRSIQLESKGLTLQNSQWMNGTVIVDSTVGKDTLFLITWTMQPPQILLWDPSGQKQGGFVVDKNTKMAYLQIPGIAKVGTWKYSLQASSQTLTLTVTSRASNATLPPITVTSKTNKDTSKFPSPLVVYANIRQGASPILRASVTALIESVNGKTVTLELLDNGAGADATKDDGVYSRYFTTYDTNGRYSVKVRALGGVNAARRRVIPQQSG

[2] = molecular target: the molecule itself; test: SDS-PAGE with or without DTT and Western blot

- binding result [1]: binds
B1: C-terminal cleavage product of CLCA1 (CTP) (domain or fragment, human, UniProt A8K7I4 695-914, looked up)
chain: ALYIPGWIENDEIQWNPPRPEINKDDVQHKQVCFSRTSSGGSFVASDVPNAPIPDLFPPGQITDLKAEIHGGSLINLTWTAPGDDYDHGTAHKYIIRISTSILDLRDKFNESLQVNTTALIPKEANSEEVFLFKPENITFENGTDLFIAIQAVDKVDLKSEISNIARVSLFIPPQTPPETPSPDETSAPCPNIHINSTIPGIHILKIMWKWIGELQLSIA
modifications: N-glycans at Asn770, Asn804, Asn810, Asn831 and Asn836
- binding result [2]: binds
